The supplement of paper PMC9170038

Tested on: MS2 coat protein
Assay: apparent KD of MS2 coat protein; designed switch direction (-1 OFF switch, 1 ON switch): -1; higher = weaker reporter binding
How it was run: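 Three titration conditions were used: no input, 200 uM small-molecule ligand, and an oligonucleotide input. In each, SNAP-549-labelled MS2 coat protein was raised from 0.7 or 1.5 nM, doubling, to 3 µM over designed RNA switches transcribed on Illumina chips by stalled E. coli RNA polymerase. Curve fits of normalised cluster fluorescence gave values whose per-design median over clusters is the apparent KD.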

[1] = input ligand: microRNA oligo, concentration not stated
[2] = Eterna round: R95, input ligand: FMN 200 uM
[3] = Eterna round: R95, input ligand: microRNA oligo, concentration not stated
[4] = Eterna round: R95, input ligand: none

| Sequence | apparent KD of MS2 coat protein (input ligand: FMN 200 uM) | apparent KD of MS2 coat protein [1] | apparent KD of MS2 coat protein (input ligand: none) | apparent KD of MS2 coat protein [2] | apparent KD of MS2 coat protein [3] | apparent KD of MS2 coat protein [4] |
| --- | --- | --- | --- | --- | --- | --- |
| UAUCUUCAUAUCACAUGAGGAUCACCCAUGUUAUUCAUCUCGUAGGAUAUCGAGGUUUUUUUUUUCGAGAAGGACGUAUUGUUU [JR_ExcNG3_Sub078] (Eterna round: R96, puzzle: Exclusion NG 3) | 183 nM | 159 nM | 180 nM |  |  |  |
| UAUGAGCUAGGAUAUGCUUUGGGCUCGCUUUCCUUCGAUAAACUUGAGGAUCACCCAAGUAGAAGGAGCUUGUA [Mod 32 - Jieux - Exclusion 2] (Eterna round: R97, puzzle: Exclusion 2) | 36.5 nM |  | 15.8 nM |  |  |  |
| UAUGAUGCAGGAUAUACAUGAGGAUCACCCAUGUCUCCAAGGGAUAAAGCCAGGCGCUGUAGAAGGGCGACGAC [Eternabot (L1) Solution 28] (Eterna round: R97, puzzle: Exclusion 3) | 26.9 nM |  | 27.4 nM |  |  |  |
| UAUGGUCUUGAGGAUAUACCAGGGUGAGUCCAGGUAGAAGGUAGGACAUGAGGAUCACCCAUGUGACGUAGUGU [Eternabot (L2) Solution 49] (Eterna round: R97, puzzle: Exclusion 6) | 434 nM |  | 354 nM |  |  |  |
| UAUGGUUAAGUCAGGAUAUACAUACAGAUAUCUGAGUAGAAGGGACAUGAGGAUCACCCAUGUAUGGUAGUGUU [Ex4 #54] (Eterna round: R97, puzzle: Brourd's mod of Exclusion 4) | 169 nM |  | 76.3 nM |  |  |  |
| UAUUAACAGGCAAGAUCCCACAUGAGGAUCACCCAUGUGCUCGUCUUAUAAGGUACUGUGACGAAAGUCACGGUACC [Sensor 3, v1 - 82] (puzzle: Sensor v3, turn-off variant 1) |  |  |  | 23.2 nM | 589 nM | 29.4 nM |
| UAUUACAAGCGAGAUCCUAACAUGAGGAUCACCCAUGUGCUCGUCUCAUUUUGGACUAUCACGAAAGUGAUAGUCCU [Level Boss var2-02] (puzzle: Sensor v3, turn-off variant 1) |  |  |  | 19.9 nM | 237 nM | 17.2 nM |
| UAUUAGCAAGCAAAUGGGUACAUGAGGAUCACCCAUGUGCUCGUCUUAUAAGGUACUGUGACGAAAGUCCCGGUACC [mod--Eli6] (Eterna round: R97, puzzle: Sensor, turn-off variant 1) | 28.9 nM |  | 21.9 nM |  |  |  |
| UAUUAGCAAGCAAGAUCCUACAUGAGGAUCACCCAUGUGCUCGUCUUAAGCUCAGAAUUACUGAGCGCUCGUCUUAU [Winner reversed engineered 23] (Eterna round: R97, puzzle: Sensor, turn-off variant 1) | 468 nM |  | 645 nM |  |  |  |
| UAUUAGCAAGCCAAUGGGUACAUGAGGAUCACCCAUGUGCUCGUCUUAUAAGGUACUGUGACGAAAGUCACGGUACC [mod--Eli10] (Eterna round: R97, puzzle: Sensor, turn-off variant 1) | 16.7 nM |  | 17.7 nM |  |  |  |
| UAUUAGCAAGCGAGAUCCCACAUGAGGAUCACCCAUGUGCUCGUCUUAUAUAAGGUACUGUACGAAAGUACGGUACC [Sensor 3, v1 - 91 v6] (Eterna round: R97, puzzle: Sensor, turn-off variant 1) | 16.6 nM |  | 16.2 nM |  |  |  |
| UAUUAGCAAGCGAGAUCUCACAUGAGGAUCACCCAUGUGCUCGUCUUAUAAGGUACUGUGACGAGAGUCACGGUACC [Mat - Sensor, turn-off var - Eli Mod - D37] (Eterna round: R97, puzzle: Sensor, turn-off variant 1) | 13 nM |  | 14.1 nM |  |  |  |
| UAUUAGCAAGUAAGAUCCCACAUGAGGAUCACCCAUGUGCUCGUCAUAUCAGGUACGGAGCGGAAACUCACGGUACG [Sensor-V1 #87] (Eterna round: R97, puzzle: Sensor, turn-off variant 1) | 209 nM |  | 351 nM |  |  |  |
| UAUUAGCAAGUGAGAUCCCACAUGAGGAUCACCCAUGUGCUCGUCUUAUAAGGUACUGUGACGAUAGUCACGGUACC [Mat - Sensor, turn-off var - Eli Mod - D1] (Eterna round: R97, puzzle: Sensor, turn-off variant 1) | 49.9 nM |  | 49 nM |  |  |  |
| UAUUAGCAAGUGAGGUCCCACAUGAGGAUCACCCAUGUGCUCGUCUUAUAAGGUACUGUGACGAGAGUCACGGUACC [Mat - Sensor, turn-off var - Eli Mod - D52] (Eterna round: R97, puzzle: Sensor, turn-off variant 1) | 40.2 nM |  | 44.5 nM |  |  |  |
| UAUUAUCAAGCAAGAUCCCACAUGAGGAUCACCCAUGUGCUCGUCUUAUUUCCGGAAUUAUUGGGCUCUCGUCUAAU [JR_STOV1_Sub093] (Eterna round: R97, puzzle: Sensor, turn-off variant 1) | 90.1 nM |  | 78.2 nM |  |  |  |
| UAUUAUCAAGCAAGAUCCCACAUGAGGAUCACCCAUGUGCUCGUCUUAUUUCUGUCCUUAUUGUUCUCUCGUCUAAU [JR_STOV1_v2_Sub096] (Eterna round: R97, puzzle: Sensor, turn-off variant 1) | 41.8 nM |  | 39.9 nM |  |  |  |

| Sequence | apparent KD of MS2 coat protein (input ligand: FMN 200 uM) | apparent KD of MS2 coat protein [1] | apparent KD of MS2 coat protein (input ligand: none) | apparent KD of MS2 coat protein [2] | apparent KD of MS2 coat protein [3] | apparent KD of MS2 coat protein [4] |
| --- | --- | --- | --- | --- | --- | --- |
| UAUUAUCAAGCUAGAUCCCACAUGAGGAUCACCCAUGUGCUCGUCUUAUUUCCGGAAUUAUUGGGCUCUCGUCUUUU [JR_STOV1_Sub092] (Eterna round: R97, puzzle: Sensor, turn-off variant 1) | 235 nM |  | 238 nM |  |  |  |
| UAUUGGCUAGGAUAUCCGGCUGGCGACAUGAGGAUCACCCAUGUGGACUCUGGUUGUCUUGGAGAAGGAGCAUGCG [EX5 B.19] (Eterna round: R97, puzzle: Exclusion 5) | 206 nM |  | 138 nM |  |  |  |
| UAUUUACAUGAGGAUCACCCAUGUCAGGAUAUGCGUCUAUCGUCGAAAGACGAUAGUCGCAGAAGGGACAAUAU [LRO-Excl01-22 mod derived from EliFisker 4.24] (Eterna round: R97, puzzle: Exclusion 1) | 100 nM |  | 48.9 nM |  |  |  |
| UAUUUACAUGAGGAUCACCCAUGUCAGGAUAUGUUUCUAUCGUCGAAAGACGAUAGUUGCAGAAGGGACAAUAU [LRO-Excl01-25 mod derived from EliFisker 4.24] (Eterna round: R97, puzzle: Exclusion 1) | 94.1 nM |  | 48.5 nM |  |  |  |
| UAUUUGUCAGGAUAUGAGUCGUAGAACAAUAGUACUACGUCUCAGAAGGGACAUGAGGAUCACCCAUGUGCCUC [Fiskers Ex 4 Super Stable 44 mod 29] (Eterna round: R96, puzzle: Exclusion 4) | 276 nM | 24.3 nM | 28.9 nM |  |  |  |
| UAUUUGUCAGGAUAUGAGUCGUAGAACAAUAGUACUACGUCUCAGAAGGGACAUGAGGAUCACCCAUGUGCCUC [Fiskers Ex 4 Super Stable 44 mod 29] (puzzle: Exclusion 4) |  |  |  |  | 25.5 nM |  |
| UCAACCAGAGGAUAUGCGCAUAGAUCAGACUUUGUUUCUUAACAUGAGGAUCACCCAUGUAGAAGGCUGUAACC [Ex2 #77] (Eterna round: R97, puzzle: Exclusion 2) | 20.3 nM |  | 19.8 nM |  |  |  |
| UCAAGACAUGAGGAUCACCCAUGUCAGGAUAUCUAGGUUCGCUAUUUCAUUGUUAACGAGAGAAGGGACAUGAU [EX1 C.13] (Eterna round: R97, puzzle: Exclusion 1) | 22.9 nM |  | 18 nM |  |  |  |
| UCACGGGACUGAGGAUAUACAUCAACCAUGGUUGUAGAAGGCAGAAGGUUGGAUCAUAUACUAAACAUGAGGAUCACCCAUGUU [JR_ExcNG1_Sub030] (Eterna round: R96, puzzle: Exclusion NG 1) | 23.6 nM | 19.9 nM | 20.7 nM |  |  |  |
| UCAGACAUGAGGAUCACCCAUGUGUGACCCUCCUGUCUCAGUCAGGAUAUACUUUUUCAAACUUAGUAGAAGGGACAACAAAAC [Oronerused] (Eterna round: R96, puzzle: Exclusion NG 3) | 37.8 nM | 27.8 nM | 61.4 nM |  |  |  |
| UCAGGUCGGUAGGAUAUCGACGGGAAAAGCCCACGAGAAGGACUGACAUGAGGAUCACCCAUGUGAGCGUAACC [EX6 B.1] (Eterna round: R97, puzzle: Exclusion 6) | 37.9 nM |  | 101 nM |  |  |  |
| UCAUACGGUGAGGAUAUCUCCGCUAAAGUGUGUAGAGAAGGCGCUACAUGAGGAUCACCCAUGUUUAUGGGCAG [Ex-6 Malc#12] (Eterna round: R96, puzzle: Exclusion 6) |  | 271 nM |  |  |  |  |
| UCAUACGGUGAGGAUAUCUCCGCUAAAGUGUGUAGAGAAGGCGCUACAUGAGGAUCACCCAUGUUUAUGGGCAG [Ex-6 Malc#12] (puzzle: Exclusion 6) |  |  |  | 52.9 nM | 347 nM | 443 nM |
| UCAUACGGUGAGGAUAUCUCCGUUAAAGUAUGUAGAGAAGGCGCUACAUGAGGAUCACCCAUGUUUGUGGGCAG [Ex-6 Malc#10] (puzzle: Exclusion 6) |  |  |  |  | 323 nM |  |
| UCAUGGAAGCAGGAUAUGCUUGUUUAAUUGUUUGCAGAAGGGCUAACAUGAGGAUCACCCAUGUAAGAGGUCUA [JR_E6_Sub063] (Eterna round: R96, puzzle: Exclusion 6) | 59.6 nM | 53.3 nM | 72.5 nM |  |  |  |
| UCAUGGAAGCAGGAUAUGCUUGUUUAAUUGUUUGCAGAAGGGCUAACAUGAGGAUCACCCAUGUAAGAGGUCUA [JR_E6_Sub063] (puzzle: Exclusion 6) |  |  |  |  | 35.3 nM |  |
